Test results: the RNAGym collection of RNA variant scans (doi:10.7554/elife.90254)

B1: LINE1-mini (parent)
chain: GGCAGAGCUCAACACAGCGUGGCAAAGUGGCUGUGGCUAGACUGCC

Variants of: B1
Experiment: self-cleavage, relative activity (ratio to wild type); higher = more cleavage; in vitro, sequencing; the parent is a self-cleaving ribozyme

C31A C46G and C31A C46U are the same in self-cleavage: 0.11 for the first, 0.11 for the second.

Compared with C31A G33A, C31A G33C is higher in self-cleavage: 0.06 for the first, 0.1 for the second.

Compared with C31A G33U, C31G U43A is higher in self-cleavage: 0.08 for the first, 0.13 for the second.

C31G U43C and C31G U43G are the same in self-cleavage: 0.05 for the first, 0.05 for the second.

Going from C31G G35C to C31G G35A, the self-cleavage falls from 0.05 to 0.04.

First: C31G G35U
Second: C31G C37G
The self-cleavage of the first is lower: 0.03 for the first, 0.04 for the second.

Compared with C31G C37U, C31G C37A is higher in self-cleavage: 0.05 for the first, 0.09 for the second.

Going from U32A C42A to U32A C42G, the self-cleavage rises from 0.05 to 0.06.

Going from U32A C42U to C31U G36C, the self-cleavage rises from 0.05 to 0.07.

Going from C31U G36A to C31U G36U, the self-cleavage falls from 0.12 to 0.06.

First: U32A A41U
Second: U32A A41C
The self-cleavage of the first is higher: 0.13 for the first, 0.07 for the second.

First: U32A A41G
Second: C31A U32C
The self-cleavage of the first is lower: 0.04 for the first, 0.07 for the second.

C31A U32A and C31A U32G are the same in self-cleavage: 0.05 for the first, 0.05 for the second.

First: C31G A39G
Second: C31G A39C
The self-cleavage of the first is lower: 0.03 for the first, 0.12 for the second.

First: C31G A39U
Second: U32A C46U
The self-cleavage of the first is lower: 0.06 for the first, 0.1 for the second.

First: U32A C46A
Second: U32A C46G
The self-cleavage of the first is lower: 0.08 for the first, 0.28 for the second.

First: C31U U32A
Second: C31U U32G
The self-cleavage of the first is higher: 0.09 for the first, 0.06 for the second.

Compared with C31U U32C, C31U U34C is higher in self-cleavage: 0.08 for the first, 0.12 for the second.

First: C31U U34G
Second: C31U U34A
The self-cleavage of the first is lower: 0.04 for the first, 0.06 for the second.

First: C31A G36A
Second: C31A G36C
The self-cleavage of the first is lower: 0.11 for the first, 0.13 for the second.

First: C31A G36U
Second: U32A G36A
The self-cleavage of the first is higher: 0.12 for the first, 0.06 for the second.

Compared with U32A G36C, U32A G36U is lower in self-cleavage: 0.11 for the first, 0.05 for the second.

Compared with C31U G33A, C31U G33C is higher in self-cleavage: 0.09 for the first, 0.15 for the second.

Compared with C31U G33U, U32A C37G is higher in self-cleavage: 0.06 for the first, 0.08 for the second.

Going from U32A C37U to U32A C37A, the self-cleavage falls from 0.08 to 0.04.

Compared with U32A C45G, U32A C45A is higher in self-cleavage: 0.07 for the first, 0.11 for the second.

First: U32A C45U
Second: C31G G33A
The self-cleavage of the first is higher: 0.07 for the first, 0.05 for the second.

First: C31G G33C
Second: C31G G33U
The self-cleavage of the first is lower: 0.03 for the first, 0.06 for the second.

Going from C31G G40A to C31G G40U, the self-cleavage falls from 0.05 to 0.03.

Compared with C31G G40C, U32A G40A is higher in self-cleavage: 0.05 for the first, 0.06 for the second.

First: U32A G40C
Second: U32A G40U
The self-cleavage of the first is lower: 0.08 for the first, 0.16 for the second.

First: C31G G36U
Second: C31G G36A
The self-cleavage of the first is lower: 0.05 for the first, 0.1 for the second.

Going from C31G G36C to U32C A39G, the self-cleavage rises from 0.04 to 0.07.

First: U32C A39C
Second: C31U C42A
The self-cleavage of the first is lower: 0.08 for the first, 0.09 for the second.

Compared with C31U C42U, C31U C42G is lower in self-cleavage: 0.09 for the first, 0.04 for the second.

First: C31G U34G
Second: C31G U34C
The self-cleavage of the first is lower: 0.04 for the first, 0.14 for the second.

First: C31G U34A
Second: U32A U34C
The self-cleavage of the first is lower: 0.03 for the first, 0.15 for the second.

First: U32A U34G
Second: U32A U34A
The self-cleavage of the first is lower: 0.03 for the first, 0.05 for the second.

First: C31U U43A
Second: C31U U43G
The self-cleavage of the first is higher: 0.06 for the first, 0.02 for the second.

Compared with C31U U43C, C31U C45G is higher in self-cleavage: 0.06 for the first, 0.1 for the second.

Compared with C31U C45A, C31U C45U is higher in self-cleavage: 0.13 for the first, 0.18 for the second.

First: U32C
Second: U32A
The self-cleavage of the first is higher: 0.2 for the first, 0.1 for the second.

Compared with C31A U34G, C31A U34C is higher in self-cleavage: 0.02 for the first, 0.06 for the second.

C31A U34A and C31G G44U are the same in self-cleavage: 0.05 for the first, 0.05 for the second.

C31G G44C and C31G G44A are the same in self-cleavage: 0.05 for the first, 0.05 for the second.

Going from C31G to C31U, the self-cleavage rises from 0.1 to 0.26.

First: C31U G35C
Second: C31U G35A
The self-cleavage of the first is higher: 0.04 for the first, 0.03 for the second.

Going from C31U G35U to C31U G44A, the self-cleavage falls from 0.07 to 0.04.

Going from C31U G44U to C31U G44C, the self-cleavage rises from 0.05 to 0.07.

First: C31A G35A
Second: C31A G35U
The self-cleavage of the first is lower: 0.04 for the first, 0.06 for the second.

First: C31A G35C
Second: C31U C46U
The self-cleavage of the first is lower: 0.04 for the first, 0.23 for the second.

Going from C31U C46A to C31U C46G, the self-cleavage falls from 0.15 to 0.08.

C31G U32C and C31G U32G are the same in self-cleavage: 0.08 for the first, 0.08 for the second.

C31G U32A and C31G C42A are the same in self-cleavage: 0.05 for the first, 0.05 for the second.

Compared with C31G C42G, C31G C42U is higher in self-cleavage: 0.06 for the first, 0.09 for the second.

First: U32A A39G
Second: U32A A39U
The self-cleavage of the first is lower: 0.05 for the first, 0.06 for the second.

Compared with U32A A39C, U32A G33A is higher in self-cleavage: 0.06 for the first, 0.08 for the second.

Compared with U32A G33U, U32A G33C is higher in self-cleavage: 0.07 for the first, 0.08 for the second.

Compared with C31U A41G, C31U A41C is higher in self-cleavage: 0.04 for the first, 0.06 for the second.

Compared with C31U A41U, C31G U38A is lower in self-cleavage: 0.16 for the first, 0.09 for the second.

Compared with C31G U38C, C31G U38G is lower in self-cleavage: 0.07 for the first, 0.03 for the second.

Compared with C31A U43G, C31A U43C is lower in self-cleavage: 0.15 for the first, 0.05 for the second.

Going from C31A U43A to C31U U38C, the self-cleavage rises from 0.08 to 0.14.

Going from C31U U38G to C31U U38A, the self-cleavage rises from 0.05 to 0.2.

Going from U32A U38G to U32A U38A, the self-cleavage rises from 0.02 to 0.09.

Going from U32A U38C to C31A U38G, the self-cleavage falls from 0.07 to 0.03.

Compared with C31A U38C, C31A U38A is lower in self-cleavage: 0.16 for the first, 0.12 for the second.

Compared with C31U C37U, C31U C37G is lower in self-cleavage: 0.07 for the first, 0.05 for the second.

Going from C31U C37A to U32A G35A, the self-cleavage falls from 0.09 to 0.04.

Compared with U32A G35C, U32A G35U is lower in self-cleavage: 0.08 for the first, 0.05 for the second.

First: C31A G44A
Second: C31A G44C
The self-cleavage of the first is higher: 0.06 for the first, 0.04 for the second.

Going from C31A G44U to C31G C46A, the self-cleavage rises from 0.04 to 0.06.

First: C31G C46G
Second: C31G C46U
The self-cleavage of the first is lower: 0.04 for the first, 0.07 for the second.

First: C31U A39C
Second: C31U A39G
The self-cleavage of the first is higher: 0.12 for the first, 0.05 for the second.

Going from C31U A39U to C31G C45G, the self-cleavage falls from 0.13 to 0.04.

First: C31G C45A
Second: C31G C45U
The self-cleavage of the first is lower: 0.04 for the first, 0.08 for the second.

First: U32A U43G
Second: U32A U43C
The self-cleavage of the first is higher: 0.11 for the first, 0.04 for the second.

Going from U32A U43A to C31G A41U, the self-cleavage rises from 0.08 to 0.09.

First: C31G A41C
Second: C31G A41G
The self-cleavage of the first is higher: 0.05 for the first, 0.03 for the second.

C31U G40A and C31U G40U are the same in self-cleavage: 0.04 for the first, 0.04 for the second.

Compared with C31U G40C, C31A G40C is higher in self-cleavage: 0.03 for the first, 0.04 for the second.

Compared with C31A G40U, C31A G40A is lower in self-cleavage: 0.05 for the first, 0.04 for the second.

Going from U32A G44A to U32A G44C, the self-cleavage falls from 0.23 to 0.07.

In the case of U32A G44U, the self-cleavage is reported as 0.06.
